From the nanobody polyreactivity screen of Harvey et al. (2022) come the findings set out here.

The nature of this series: yeast display, Sf9 membrane polyspecificity reagent, FACS + sequencing; frameworks hold sequencing errors. The essentials: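 Synthetic nanobody libraries on Saccharomyces cerevisiae BJ5465 were galactose-induced for 36–48 hours, stained 1 hour at 4 °C with 10% biotinylated, detergent-solubilized Sf9 membrane reagent and enriched on streptavidin microbeads. FACS then separated cells into low and high (top ~1%) gates by anti-HA (expression) and streptavidin (reagent binding) fluorescence. Genes were colony-PCR amplified, MiSeq 2 × 250 sequenced and CDR-length filtered. A clone's polyreactivity label is that of its gate of origin.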
Take “QVQLVESGGGLVQSGGSLRLTCAASGSIIRYYTMGWYRQAPGKERELVATITQSGGSTYYADSVKGRFTISRDNAKNTVYLQINSLKPEDTAVYYCAALVRRGFRLYGSWGQGTQVTVSS”: the “polyreactivity (PSR sort gate)” value is given as “high polyreactivity”.
In the case of “QVQLVESGGGLVQAGGSLRLSCAASGSTFGQYVMAWYRQAPGKERELVAAISSGDSTNYADSVKGRFTISRDNAKNTVYLQMNSLKPEDTAVYYCAAARRPTYWPVYPYFGYEYWGQGTQVTVSS”, the “polyreactivity (PSR sort gate)” value is “low polyreactivity”.
Consider “QVQLVESGGGLVQAGGSLRLSCAASGRIFGGYAMGWYRQAPGKERELVAVISGRGGSTYYADSVKGRFTISRDNAMNTVYLQMNSLKPEDTAVYYCTVYRRIQRYGPQSYDYWGQGTQVTVSS”, for which the “polyreactivity (PSR sort gate)” value is reported as “high polyreactivity”.
For “QVQLVESGGGLVQAGGSLRLSCAASGFTFSAYDMGWYRQAPGKERELVAAISYSGGSTYYADSVKGRFTISRDTAKNTVYLQMNSLKPEDTAVYYCAADGYYTDYWGQGTQVTVSS”, the “polyreactivity (PSR sort gate)” value is on record as “high polyreactivity”.
Regarding “QVQLVESGGGLVQAGGSLRLSCAASGSNFRGYTMGWYRQAPGKERELVANISTSVGRTYYADSVKGRFTISRDNAKNTVFLQMNSLKPEDTAVYYCNARRAYRWKPDTGSAGMDYWGQGTQVTVSS”, the “polyreactivity (PSR sort gate)” value is “high polyreactivity”.
Regarding “QDQLVESGGGLVQAGGSLRLSCAASGFTIGYNVMGWYRQAPGKERELVATISWNGARTYYADSVKGRFTISRDNAKNTVYLQMNSLKPEETAVYYCAARRYYRGEYDYWGQGTQVTVSS”, the “polyreactivity (PSR sort gate)” value is listed as “low polyreactivity”.
In the case of “QVQLVESGGGLVQAGGSLRLSCAASGLTFKLYVMGWYRQAPRKERELVAAISGGGSTYYADSVKGRFTISRDNAKNTVYLQMYSLKPEDTAVYYCAAVRYFEYEYWGQGTQVTVSS” it was “low polyreactivity”; in that of “QVQLVESGGGLVQAGGSLRLSCAASGFIFWENGMGWYRQAPGKERELVAAISSGVGRTYYADSVKGRFTISRDNAKNTVYLQMNSLKPEDTAVYYCNRARYYREFDYWGQGTQVTVSS”, “high polyreactivity”.
Turning to “QVQLVESGGGLVQAGGSLRLSCAASGSIFDRYAMGWYRQAPGKESELVAAITCGTSTYYADSVKGRFTISRDNAKNTVYLKMNSLKPEDTAVYYCNKGYSSSMDYWGQGTQVTVSS”, the “polyreactivity (PSR sort gate)” value is given as “low polyreactivity”.
Regarding “QVQLVESGGGLVQAGGSLRLSCAASGFTLQRYAMGWYRQAPGKEREFVAVITRSGGSTYYADSVKGRFTISRDNAKNSVYLQMNSLKPEDTAVYDCAKREFPTTRNRGRYDYWGQGTQVTVSS”, the “polyreactivity (PSR sort gate)” value is recorded as “high polyreactivity”.
Consider “QVQLVESGGGLVQAGGSLRLSCASSGRTFFPYAKGWYRQAPGKEREFVAAITKTDDSTYYADSVKGRFTISRDNAKNTVYLQMNSLKPEDTAVYYCNAGDTQIRFYYWGQGTQVTVSS”, for which the “polyreactivity (PSR sort gate)” value is recorded as “low polyreactivity”.
As for “QVQLVESGGGLVQAGGSLRLSCAASGSTFSVYTMGWYRQAPGKERELVATISGGGSTYYADSVKGRFTISRDNAKNTVYLQMNSLKPEDTAVYYCNAQGYGIFTSSLDYWGQGTQVTVSS”, the “polyreactivity (PSR sort gate)” value is “low polyreactivity”.
In the case of “QVQLVESAGGLVQAGGSLRLSCPASGSTFTFNAMGWYRQAPGKERELVADITSGGRTNYADSVKGRFTISRDNAKNTVYLQMNSLKPEDTAVYYCAARWWAHEYPGYDSWGQGTQVTVSS”, the “polyreactivity (PSR sort gate)” value was “low polyreactivity”.
As to “QVQLVESGGGLVQAGGSLRLSCAASGIIFAGNTMGWYIQAPWKERELVAAITWSGGSTYYADSVKGRFTISRDNAKNTVYLQMNSQKPEDTAVYYCAAYYGGYGWDDKYDYWGQGTQVTVSS”, the “polyreactivity (PSR sort gate)” value was “low polyreactivity”.
As for “QVQLVESGGGLVQAGGSLRLSCAASGSTFDENAMAWYRQAPGKEWELVAVISDSGGSTYYADSVKGRFTISRDNAKNTVYLQMNSLKPEDTAVYYCAADQSSLDYGNDYWGQGTQVTVSS”, the “polyreactivity (PSR sort gate)” value was “low polyreactivity”.
To “QVQLVESGGGLVQAGGSLSLICAASGFIFYYYAMGWYRQAPGKERELVAGMSRRGGSTYYADSVKGRFTISRDNAKNTVYLQMNSLKPEDTAVYYCAALGDDATSYGYWGQGTQVTVSS” belongs “high polyreactivity”.
“QVQLVESGGGLVQAGGSLRLSCAATGRNFAVNAIGWYRQAPGKERELVASIRWSGGGTYYADSVKGRFTISRDNAKNTVYLQMNCLKPEDTAVYYCKALRKTYRLDYWGQGTQVTVSS”: the “polyreactivity (PSR sort gate)” value is “high polyreactivity”.
In the case of “QVQLVESGGGLVQAGGSLRLSCAASGRILVYYAMGWYRQAPGKEREFVAAISQRGGSTYYADSVKGRFTISRDNAKNTVYLQMNSLKPEDTAVYYCATRPIQYRRGYDYWGQGTQVTVSS” it was “high polyreactivity”; in that of “QVQLVESGGGLVQAGGSLRLSCAASGSTFWKYAMGWYRQAPGKERELVAAINTSGGRTYYADSVKGRCTISRDNAKNTVYLQMNSLKPEDTAVYYCNARQGITYKDGRSIKYDYWGQGTQVTGSS”, “high polyreactivity”; in that of “QVQLVESGGGLVQAGGSLRLSCPASGSNLYPYAMGSSTQPPATEREMVATISYSVVSTYYAESVKGRFTISRDNAKNTVYLQMNSLKPEDTAVYYCADKSRSSKYVYWGQGTQVSVSS”, “high polyreactivity”.
Turning to “QVQLVESGGGLVQAGGSLRLSCAASGRIFNENAMGWYRQAPGKERELVAAISRRGGTTYYADSVKGRFTISRDNAKNTVYLQMNSLIPEDTAVYYCNARYSKKGESQREYDYWGQGTQVTVSS”, the “polyreactivity (PSR sort gate)” value is recorded as “low polyreactivity”.
Take “QVQLVESGGGLVQAGGSLRLSCAASGSIFYSYAMGWYRQAPGKERELVADITITGSTYYADSVKGRFTISRDNAKNTVYLQMNSLKPDDTAVYYCNAVLAPGGYDYWGQGTQVTVSS”: the “polyreactivity (PSR sort gate)” value is given as “low polyreactivity”.
Take “QVQLVESGGGLVQAGGSLRLSCAASGRIFYYYAMGWYRQAPGKERELVAAISTDVGGTFYAESVKGRFTISRANAKNTVYLQMNSLKPEDTAVDYCAVEYLWHGDEHDYWGQGTQVTVSS”: the “polyreactivity (PSR sort gate)” value is “high polyreactivity”.
As for “QVQLVESRGGLVQAGGSLRLSCAASGRIFDVYAMVWYRQAPGKERELVAAITWSGTSTYYADSVKGRFTISRDNAKNTVYVQMNSLKPEDTAVYYCAAEVAYTDTEYFWYYYWGQGTQVTVSS”, the “polyreactivity (PSR sort gate)” value is “high polyreactivity”.
To “QVQLQESGGGLVQAGGSLRLSCAASGYISTWYPMGWYRQAPGKEREFVATIAPGATTYYADSVKGRFTISRDYAKNSVYLQMNSLKPEDTAVYYCAAGPENNDFYSYWGQGTQVTVSS” belongs “low polyreactivity”.
On to “QVQLVESGGGLVQAGGSLRLTCAASGSIFSFYAMGWYRQAPGKERELVAAITQSDSSTYYADSVKGRFTISRDNAKNTVYLQMNSLKPVDTAVYYCAKDYYAYSDYDYWGQGTQVTVSS”, for which the “polyreactivity (PSR sort gate)” value is “low polyreactivity”.
Take “QVQLVESGGGLVQAGGSLRLSCAASGLIFYGNAMGWYRQAPGKERELVAAISRRGGRTYYADSVKGRFTISRDKAKNTVYLQMKSLKPEDTAVYYCAADVIYSGDYWGQGTQVTVSS”: the “polyreactivity (PSR sort gate)” value was “high polyreactivity”.
For “QVQLVESGGGLVQAGGSLRLSCAASGFTLEYNAMGWYRQAPGKERELVAAIDGDGTTYYADSVKGRFTISRDNAKNTVYLQMNSLKPEDTAVYYCNTRTTPYYAQGITRIEYDYWGQGTQVTVSS”, the “polyreactivity (PSR sort gate)” value was “low polyreactivity”.
In the case of “QVQLEESGGSIVQAGGSLRLSCAASGYTFLGNAMGWYRKAPGKERELVAAISSGGTTFYADSVMGRFTISRDNAKNTVYLQMNSLNPEDTAVYYCAAKDTTVFYYDDDYWGQGTQVTVSS” it was “low polyreactivity”.
To “QVHLVESGGGLVQAGGSLRLSCAASGSTFFLYAMGWYRQAPGKERELVAAISSGGSTYYADSVKGRFTISRDNAKNTVYLQMTRLKPEDTAVYYCARDRIDTTDRTWRGDYWGQGTQATVSS” belongs “low polyreactivity”.
